Changes are numbered by the printed parent chain. Names and notes keep the numbering of the source.
B1: full-length p202 (purified) (natural protein, mouse, UniProt Q9R002 1-445, looked up)
chain: MSNRNLRSSTNSEFSEGQHQTPSSDSSGHGEDQPQASPGPNKKSHTPKKNISKGAVLHEKPMTVMVLTATEPFNYKEGKENMFHATVATESQYYRVKVFNMDLKEKFTENKFITISKYFNSSGILEINETATVSEAAPNQIIEVPKNIIRSAKETLKISKIKELDSGTLIYGVFAVEKKKVNDKSITFKIKDNEDNIKVVWDKKQHNINYEKGDKLQLFSFHLRKGNGKPILHSGNHSFIKGEKLLKESFEGDGYHKGPKQVVALKATKLFTYDSIKSKKMFHATVATDTEFFRVMVFEENLEKKFIPGNTIALSDYFGMYGSLAIHEYSSVSEVKSQNKEDSSSSDERLIEHLKICDLHLQTKERLVDGEFKVYRKSTGNNCICYGIWDDTGAMKVVVSGQLTSVNCEIGNTIRLVCFELTSNADEWFLRSTRYSYMEVIMPEK
B2: p202, endogenous in bone marrow-derived macrophages (natural protein, UniProt Q9R002 1-445, looked up)
chain: B1 chain
B3: p202 HIN2 (K244-K445) (domain or fragment, mouse, UniProt Q9R002 244-445, looked up)
chain: KLLKESFEGDGYHKGPKQVVALKATKLFTYDSIKSKKMFHATVATDTEFFRVMVFEENLEKKFIPGNTIALSDYFGMYGSLAIHEYSSVSEVKSQNKEDSSSSDERLIEHLKICDLHLQTKERLVDGEFKVYRKSTGNNCICYGIWDDTGAMKVVVSGQLTSVNCEIGNTIRLVCFELTSNADEWFLRSTRYSYMEVIMPEK
B4: mouse AIM2 HIN (domain or fragment, UniProt Q91VJ1 144-341, looked up)
chain: MVAEQEAIREDLQKDPLVVTVLKAINPFECETQEGRQEIFHATVATETDFFFVKVLNAQFKDKFIPKRTIKISNYLWHSNFMEVTSSSVVVDVESNHEVPNNVVKRARETPRISKLKIQPCGTIVNGLFKVQKITEEKDRVLYGIHDKTGTMEVLVLGNPSKTKCEEGDKIRLTFFEVSKNGVKIQLKSGPCSFFKVI
B5: p202 HIN2 R376E (domain or fragment, mouse, UniProt Q9R002 244-445, looked up)
chain: B3 chain with R133E

How the values were obtained:
[1] = molecular target: the molecule itself; assay: SEC-MALS
[2] = molecular target: the molecule itself; assay: cross-linking
[3] = molecular target: B4; assay: ITC
[4] = molecular target: B3; assay: ITC

With B1 the “stoichiometry N” value [1] was 4.

B2 was tested, and the “stoichiometry N” value [2] was 4.

In the case of B3, the “stoichiometry N” value [3] is reported as 2 p202 HIN2 per AIM2 HIN and the “stoichiometry N” value [1] is reported as 4.

B4 was tested, and the Kd [4] was 12.6 µM.

In the case of B5, the “stoichiometry N” value [1] is reported as 2.
